According to US20250076311A1 (Chugai, published 2025):
One block for each binder: values may come before it.

Legend:
[1] = molecular target: T1, cynomolgus monkey FcγRIIa1 extracellular domain with C-terminal His-tag (cynomolgus monkey); assay: SPR (Biacore), KD of SG1 / KD of variant
T1 construct: also called cyno FcgRIIa1; cynoFcγRIIa1
T1 chain: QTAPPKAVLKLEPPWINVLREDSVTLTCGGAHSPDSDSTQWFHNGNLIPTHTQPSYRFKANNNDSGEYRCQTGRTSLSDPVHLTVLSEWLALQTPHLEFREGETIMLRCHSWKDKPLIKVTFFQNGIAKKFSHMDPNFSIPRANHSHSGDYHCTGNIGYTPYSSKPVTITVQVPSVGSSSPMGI

[2] = molecular target: T2, cynomolgus monkey FcγRIIIaS extracellular domain with C-terminal His-tag (cynomolgus monkey, UniProt Q8SPW2 21-206 at identity 1.00)); assay: SPR (Biacore), antibody captured, FcgR analyte
T2 construct: also called cyno FcgRIIIaS; cynoFcγRIIIaS
T2 chain: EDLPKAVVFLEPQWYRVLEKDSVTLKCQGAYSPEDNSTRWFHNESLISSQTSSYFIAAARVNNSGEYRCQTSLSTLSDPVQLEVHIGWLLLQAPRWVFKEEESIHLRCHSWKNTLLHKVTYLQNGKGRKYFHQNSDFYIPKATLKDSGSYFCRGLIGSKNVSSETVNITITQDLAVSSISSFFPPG

[3] = molecular target: T3, human FcγRIIaH extracellular domain with C-terminal His-tag (human, UniProt P12318 34-217); assay: SPR (Biacore), KD of SG1 / KD of variant
T3 construct: also called human FcgRIIaH; FcγRIIa (type H)
T3 sequence: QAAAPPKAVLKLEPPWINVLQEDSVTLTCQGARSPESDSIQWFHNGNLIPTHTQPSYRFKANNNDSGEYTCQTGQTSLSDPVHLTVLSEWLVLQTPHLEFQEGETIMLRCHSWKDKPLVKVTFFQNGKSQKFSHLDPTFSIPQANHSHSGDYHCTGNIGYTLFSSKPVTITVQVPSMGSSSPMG

[4] = molecular target: T3, human FcγRIIaH extracellular domain …; assay: SPR (Biacore), antibody captured, FcgR analyte
[5] = molecular target: T4, cynomolgus monkey FcγRIIa3 extracellular domain with C-terminal His-tag (cynomolgus monkey); assay: SPR (Biacore), antibody captured, FcgR analyte
T4 construct: also called cyno FcgRIIa3; cynoFcγRIIa3
T4 chain: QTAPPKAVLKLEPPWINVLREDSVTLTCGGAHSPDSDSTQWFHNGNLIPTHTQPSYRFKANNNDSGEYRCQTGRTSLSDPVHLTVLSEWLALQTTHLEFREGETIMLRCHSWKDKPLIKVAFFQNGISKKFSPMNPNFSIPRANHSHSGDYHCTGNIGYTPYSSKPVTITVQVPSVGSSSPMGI

[6] = molecular target: T5, cynomolgus monkey FcγRIIb extracellular domain with C-terminal His-tag (cynomolgus monkey); assay: SPR (Biacore), KD of SG1 / KD of variant
T5 construct: also called cyno FcgRIIb; cynoFcγRIIb
T5 chain: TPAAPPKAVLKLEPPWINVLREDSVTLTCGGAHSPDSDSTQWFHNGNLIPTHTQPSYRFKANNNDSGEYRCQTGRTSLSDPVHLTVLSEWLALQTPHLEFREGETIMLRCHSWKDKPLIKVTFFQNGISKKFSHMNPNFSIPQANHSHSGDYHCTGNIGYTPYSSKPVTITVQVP

[7] = molecular target: T6, cynomolgus monkey FcγRIIa2 extracellular domain with C-terminal His-tag (cynomolgus monkey); assay: SPR (Biacore), KD of SG1 / KD of variant
T6 construct: also called cyno FcgRIIa2; cynoFcγRIIa2
T6 chain: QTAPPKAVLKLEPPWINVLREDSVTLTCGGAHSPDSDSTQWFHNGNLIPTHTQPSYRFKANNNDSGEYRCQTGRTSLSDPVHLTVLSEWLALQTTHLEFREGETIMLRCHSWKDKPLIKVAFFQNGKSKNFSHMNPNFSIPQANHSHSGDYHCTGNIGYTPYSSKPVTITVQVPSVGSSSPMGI

[8] = molecular target: T7, human FcγRIIaR extracellular domain with C-terminal His-tag (human, UniProt P12318 34-217); assay: SPR (Biacore), KD of SG1 / KD of variant
T7 construct: also called human FcgRIIaR; FcγRIIa (type R)
T7 chain: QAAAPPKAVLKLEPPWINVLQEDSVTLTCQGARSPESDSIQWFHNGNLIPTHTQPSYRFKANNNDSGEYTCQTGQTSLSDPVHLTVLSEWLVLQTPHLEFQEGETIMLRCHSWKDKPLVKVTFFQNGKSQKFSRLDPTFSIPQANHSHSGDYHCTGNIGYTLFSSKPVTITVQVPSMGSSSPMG

[9] = molecular target: T8, cynomolgus monkey FcγRIIb extracellular domain with C-terminal His-tag (cynomolgus monkey); assay: SPR (Biacore), antibody captured, FcgR as analyte
T8 construct: also called cyno FcgRIIb; cynoFcγRIIb
T8 chain: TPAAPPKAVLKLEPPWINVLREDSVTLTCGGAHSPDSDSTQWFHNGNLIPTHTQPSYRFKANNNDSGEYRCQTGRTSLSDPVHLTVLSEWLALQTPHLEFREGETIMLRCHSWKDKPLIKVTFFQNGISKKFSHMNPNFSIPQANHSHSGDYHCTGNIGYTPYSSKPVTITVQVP

[10] = molecular target: T9, human FcγRIIaR extracellular domain with C-terminal His-tag (human, UniProt P12318 34-217); assay: SPR (Biacore), KD of SG1 divided by KD of variant
T9 construct: also called human FcgRIIaR; FcγRIIa (type R)
T9 chain: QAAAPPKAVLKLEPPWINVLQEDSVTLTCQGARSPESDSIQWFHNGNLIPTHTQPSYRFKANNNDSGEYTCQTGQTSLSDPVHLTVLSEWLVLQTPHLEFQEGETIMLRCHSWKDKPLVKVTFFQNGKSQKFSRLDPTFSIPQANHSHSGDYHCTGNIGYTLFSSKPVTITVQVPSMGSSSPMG
Protocol: The kinetic analysis of interactions between these antibodies and FcγR was carried out using BIACORE® T200 or BIACORE® 4000 (GE Healthcare). HBS-EP+ (GE Healthcare) was used as the running buffer, and the measurement temperature was set to 25° C. […] After the measurement, the antibody captured on the chip was washed off by allowing reaction with 10 mM glycine-HCl, pH1.5 and 25 mM NaOH so that the chip was regenerated and used repeatedly. The sensorgrams obtained as measurement results were analyzed by the 1:1 Langmuir binding model using the BIACORE® Evaluation Software to calculate the binding rate constant ka (L/mol/s) and dissociation rate constant kd (1/s), and the dissociation constant KD (mol/L) was calculated from these values. […] Regarding such interactions, KD values were calculated using the following 1:1 binding model described in BIACORE® T100 Software Handbook BR1006-48 Edition AE.

KD fold (SG1 = 1) [1]: 1.5 fold
B1: M103205H795-MY446/M103202L889-SK1 (antibody, human IgG1, kappa)
heavy: QVTLKESGPVLVKPTETLTLTCTVSGIDLSHDDISWVRQAPGKGLEWVGIISYAGSTYYASWAKGRLTISKDTSKNQVVLTMTNMDPVDTATYYCARGVPAYSHGGDLWGQGTLVTVSSASTKGPSVFPLAPSSKSTSGGTAALGCLVKDYFPEPVTVSWNSGALTSGVHTFPAVLQSSGLYSLSSVVTVPSSSLGTQTYICNVNHKPSNTKVDKKVEPKSCDKTHTCPPCPAHELLTGPSVFLFPPKPKDTLMISRTPEVTCVVVDVSDEDPEVKFNWYVDGVEVHNAKTKPREEQYNSTYRVVSVLTVLHQDWLNGKEYKCKVSNKALPKPIEKTISKAKGQPREPQVYTLPPSREEMTKNQVSLTCLVKGFYPSDIAVEWESNGQPENNYKTTPPVLDSDGSFFLYSKLTVDKSRWQQGNVFSCSVMHEALHNHYTQKSLSLSP
light: DIVMTQSPATLSLSPGERATLSCTSSQSVYHANWLSWFQQKPGQPPKLLIYWASTLAYGVPSRFSGSGSGTDFTLTISSLQPEDAATYYCAGGYGGGRYAFGQGTKVEIKRTVAAPSVFIFPPSDEQLKSGTASVVCLLNNFYPREAKVQWKVDNALQSGNSQESVTEQDSKDSTYSLSSTLTLSKADYEKHKVYACEVTHQGLSSPVTKSFNRGEC
notes: Substitutions in EU numbering on SG1

Kd [2]: 2.3 µM
KD fold (SG1 = 1) [3]: 2.8 fold
KD fold (SG1 = 1) [1]: 1.3 fold
B2: M103205H795-MY472/M103202L889-SK1 (antibody)
chain 1: QVTLKESGPVLVKPTETLTLTCTVSGIDLSHDDISWVRQAPGKGLEWVGIISYAGSTYYASWAKGRLTISKDTSKNQVVLTMTNMDPVDTATYYCARGVPAYSHGGDLWGQGTLVTVSSASTKGPSVFPLAPSSKSTSGGTAALGCLVKDYFPEPVTVSWNSGALTSGVHTFPAVLQSSGLYSLSSVVTVPSSSLGTQTYICNVNHKPSNTKVDKKVEPKSCDKTHTCPPCPSPELLTGPSVFLFPPKPKDTLMISRTPEVTCVVVDVSDEDPEVKFNWYVDGVEVHNAKTKPREEQYNSTYRVVSVLTVLHQDWLNGKEYKCKVSNKALPKPIEKTISKAKGQPREPQVYTLPPSREEMTKNQVSLTCLVKGFYPSDIAVEWESNGQPENNYKTTPPVLDSDGSFFLYSKLTVDKSRWQQGNVFSCSVMHEALHNHYTQKSLSLSP
chain 2: DIVMTQSPATLSLSPGERATLSCTSSQSVYHANWLSWFQQKPGQPPKLLIYWASTLAYGVPSRFSGSGSGTDFTLTISSLQPEDAATYYCAGGYGGGRYAFGQGTKVEIKRTVAAPSVFIFPPSDEQLKSGTASVVCLLNNFYPREAKVQWKVDNALQSGNSQESVTEQDSKDSTYSLSSTLTLSKADYEKHKVYACEVTHQGLSSPVTKSFNRGEC

Kd [4]: 0.9 µM
Kd [5]: 2.5 µM
KD fold (SG1 = 1) [6]: 6.7 fold
KD fold (SG1 = 1) [7]: 5.1 fold
KD fold (SG1 = 1) [8]: 5.2 fold
B3: M103205H795-MY475/M103202L889-SK1 (antibody)
heavy: QVTLKESGPVLVKPTETLTLTCTVSGIDLSHDDISWVRQAPGKGLEWVGIISYAGSTYYASWAKGRLTISKDTSKNQVVLTMTNMDPVDTATYYCARGVPAYSHGGDLWGQGTLVTVSSASTKGPSVFPLAPSSKSTSGGTAALGCLVKDYFPEPVTVSWNSGALTSGVHTFPAVLQSSGLYSLSSVVTVPSSSLGTQTYICNVNHKPSNTKVDKKVEPKSCDKTHTCPPCPWPELLTGPSVFLFPPKPKDTLMISRTPEVTCVVVDVSDEDPEVKFNWYVDGVEVHNAKTKPREEQYNSTYRVVSVLTVLHQDWLNGKEYKCKVSNKALPKPIEKTISKAKGQPREPQVYTLPPSREEMTKNQVSLTCLVKGFYPSDIAVEWESNGQPENNYKTTPPVLDSDGSFFLYSKLTVDKSRWQQGNVFSCSVMHEALHNHYTQKSLSLSP
light: DIVMTQSPATLSLSPGERATLSCTSSQSVYHANWLSWFQQKPGQPPKLLIYWASTLAYGVPSRFSGSGSGTDFTLTISSLQPEDAATYYCAGGYGGGRYAFGQGTKVEIKRTVAAPSVFIFPPSDEQLKSGTASVVCLLNNFYPREAKVQWKVDNALQSGNSQESVTEQDSKDSTYSLSSTLTLSKADYEKHKVYACEVTHQGLSSPVTKSFNRGEC
notes: as for B1

Kd [2]: 1.3 µM
KD fold (SG1 = 1) [1]: 2.5 fold
B4: M103205H795-MY450/M103202L889-SK1 (antibody, human IgG1, kappa)
heavy: QVTLKESGPVLVKPTETLTLTCTVSGIDLSHDDISWVRQAPGKGLEWVGIISYAGSTYYASWAKGRLTISKDTSKNQVVLTMTNMDPVDTATYYCARGVPAYSHGGDLWGQGTLVTVSSASTKGPSVFPLAPSSKSTSGGTAALGCLVKDYFPEPVTVSWNSGALTSGVHTFPAVLQSSGLYSLSSVVTVPSSSLGTQTYICNVNHKPSNTKVDKKVEPKSCDKTHTCPPCPAMELLTGPSVFLFPPKPKDTLMISRTPEVTCVVVDVSDEDPEVKFNWYVDGVEVHNAKTKPREEQYNSTYRVVSVLTVLHQDWLNGKEYKCKVSNKALPKPIEKTISKAKGQPREPQVYTLPPSREEMTKNQVSLTCLVKGFYPSDIAVEWESNGQPENNYKTTPPVLDSDGSFFLYSKLTVDKSRWQQGNVFSCSVMHEALHNHYTQKSLSLSP
light: DIVMTQSPATLSLSPGERATLSCTSSQSVYHANWLSWFQQKPGQPPKLLIYWASTLAYGVPSRFSGSGSGTDFTLTISSLQPEDAATYYCAGGYGGGRYAFGQGTKVEIKRTVAAPSVFIFPPSDEQLKSGTASVVCLLNNFYPREAKVQWKVDNALQSGNSQESVTEQDSKDSTYSLSSTLTLSKADYEKHKVYACEVTHQGLSSPVTKSFNRGEC
notes: as for B1

Kd [9]: 0.48 µM
KD fold (SG1 = 1) [10]: 5.2 fold
B5: M103205H795-MY523 / M103202L889-SK1 (antibody, human IgG1, kappa, name in EU numbering)
heavy: QVTLKESGPVLVKPTETLTLTCTVSGIDLSHDDISWVRQAPGKGLEWVGIISYAGSTYYASWAKGRLTISKDTSKNQVVLTMTNMDPVDTATYYCARGVPAYSHGGDLWGQGTLVTVSSASTKGPSVFPLAPSSKSTSGGTAALGCLVKDYFPEPVTVSWNSGALTSGVHTFPAVLQSSGLYSLSSVVTVPSSSLGTQTYICNVNHKPSNTKVDKKVEPKSCDKTHTCPPCPGPELLTGPVVFLFPPKPKDTLMISRTPEVTCVVVDVSDEDPEVKFNWYVDGVEVHNAKTKPREELYNSTYRVVSVLTVLHQDWLNGKEYKCKVSNKALPKPIEKTISKAKGQPREPQVYTLPPSREEMTKNQVSLTCLVKGFYPSDIAVEWESNGQPENNYKTTPPVLDSDGSFFLYSKLTVDKSRWQQGNVFSCSVMHEALHNHYTQKSLSLSP
light: DIVMTQSPATLSLSPGERATLSCTSSQSVYHANWLSWFQQKPGQPPKLLIYWASTLAYGVPSRFSGSGSGTDFTLTISSLQPEDAATYYCAGGYGGGRYAFGQGTKVEIKRTVAAPSVFIFPPSDEQLKSGTASVVCLLNNFYPREAKVQWKVDNALQSGNSQESVTEQDSKDSTYSLSSTLTLSKADYEKHKVYACEVTHQGLSSPVTKSFNRGEC
